Experimental data published in PMC7387808 (Cellular and Molecular Immunology, 2020).

Biological target: T1, TOM70 (full-length, recombinant, analyte of the BLI) (human, UniProt O94826 1-608)
T1 construct: also called Mitochondrial import receptor subunit TOM70
T1 sequence (looked up): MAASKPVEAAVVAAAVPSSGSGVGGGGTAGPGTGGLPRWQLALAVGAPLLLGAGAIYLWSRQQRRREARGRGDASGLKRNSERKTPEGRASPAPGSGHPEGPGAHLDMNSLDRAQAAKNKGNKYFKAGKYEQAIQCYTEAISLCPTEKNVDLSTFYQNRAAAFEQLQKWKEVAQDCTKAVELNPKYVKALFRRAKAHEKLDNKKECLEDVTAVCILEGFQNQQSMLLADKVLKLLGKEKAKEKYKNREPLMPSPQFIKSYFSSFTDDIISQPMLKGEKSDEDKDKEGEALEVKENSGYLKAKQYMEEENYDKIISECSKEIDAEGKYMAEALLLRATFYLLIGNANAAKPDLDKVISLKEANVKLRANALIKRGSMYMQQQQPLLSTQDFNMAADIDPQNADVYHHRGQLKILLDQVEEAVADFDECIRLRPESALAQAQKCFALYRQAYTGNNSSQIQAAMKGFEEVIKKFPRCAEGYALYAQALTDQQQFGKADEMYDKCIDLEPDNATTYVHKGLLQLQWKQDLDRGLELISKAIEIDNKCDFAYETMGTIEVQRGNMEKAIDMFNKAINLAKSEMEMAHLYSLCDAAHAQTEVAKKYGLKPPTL
Assay: BLI; […]; kinetics ([…]) buffer 1x PBS pH 7.4, 0.1% BSA, 0.02% Tween-20; association 5 min, dissociation 5 min; […]; 1:1 global fit
Conditions: both partners purified

B1: SARS-CoV Orf9b, biotinylated (C-terminal Avi-His6) (natural protein)
chain: MDPNQTNVVPPALHLVDPQIQLTITRMEDAMGQGQNSADPKVYPIILRLGSQLSLSMARRNLDSLEARAFQSTPIVVQMTKLATTEELPDEFVVVTAK
notes: also called Biotinylated Orf9b
Kd: 41.6 ± 1.01 nM | koff: 0.00244 s⁻¹ | kon: 58600 M⁻¹ s⁻¹
